From publication PMC4264689, “Oligomerization, Conformational Stability and Thermal Unfolding of Harpin, HrpZPss and Its Hypersensitive Response-Inducing C-Terminal Fragment, C-214-HrpZPss” (PLoS ONE, 2014) come the findings set out here.

The series concerns the molecule itself. Put plainly: native gel or EMSA; native PAGE of the purified proteins in solution; multiple bands / broad smear taken as polydisperse oligomers; gel conditions not given.

B1: C-214-HrpZPss (C-terminal fragment of HrpZPss with 214 amino acids) (domain or fragment)
chain: LTKQDGGTSFSEDDMPMLNKIAQFMDDNPAQFPKPDSGSWVNELKEDNFLDGDETAAFRSALDIIGQQLGNQQSDAGSLAGTGGGLGTPSSFSNNSSVMGDPLIDANTGPGDSGNTRGEAGQLIGELIDRGLQSVLAGGGLGTPVNTPQTGTSANGGQSAQDLDQLLGGLLLKGLEATLKDAGQTGTDVQSSAAQIATLLVSTLLQGTRNQAAA
notes: Harpin HrpZ of Pseudomonas syringae pv. syringae, C-terminal 214 residues (N-terminal 127 amino acids deleted); Cloned under the NdeI and EcoRI sites of pET 28a, which probably adds an N-terminal His6 tag with a thrombin site; Forms polydisperse oligomers; the number of copies is not defined; also called C-terminal 214 residues of HrpZPss; source: E. coli BL21 (DE3), pET 28a, purified (Ni-NTA, …)
As to B1, the binding result is reported as “binds”.

B2: HrpZPss (harpin HrpZ from Pseudomonas syringae pv. syringae), full length (natural protein)
chain: MQSLSLNSSSLQTPAMALVLVRPEAETTGSTSSKALQEVVVKLAEELMRNGQLDDSSPLGKLLAKSMAADGKAGGGIEDVIAALDKLIHEKLGDNFGASADSASGTGQQDLMTQVLNGLAKSMLDDLLTKQDGGTSFSEDDMPMLNKIAQFMDDNPAQFPKPDSGSWVNELKEDNFLDGDETAAFRSALDIIGQQLGNQQSDAGSLAGTGGGLGTPSSFSNNSSVMGDPLIDANTGPGDSGNTRGEAGQLIGELIDRGLQSVLAGGGLGTPVNTPQTGTSANGGQSAQDLDQLLGGLLLKGLEATLKDAGQTGTDVQSSAAQIATLLVSTLLQGTRNQAAA
notes: Harpin HrpZ of Pseudomonas syringae pv. syringae, 34.7 kDa, 341 amino acids, full length; Forms polydisperse oligomers; the number of copies is not defined; also called full length HrpZPss; native HrpZPss; source: expressed and purified as described earlier [15]
Turning to B2, the binding result was “binds”.
